The results in this text go back to patent US20260274985A1 (MYTHIC THERAPEUTICS, published 2026).

Numbering of substitutions follows the chain as printed.

The target of test [1] is T1, TROP2 on TROP2-positive NCI-H1975 cells (human, UniProt P09758 27-323).
T1 sequence: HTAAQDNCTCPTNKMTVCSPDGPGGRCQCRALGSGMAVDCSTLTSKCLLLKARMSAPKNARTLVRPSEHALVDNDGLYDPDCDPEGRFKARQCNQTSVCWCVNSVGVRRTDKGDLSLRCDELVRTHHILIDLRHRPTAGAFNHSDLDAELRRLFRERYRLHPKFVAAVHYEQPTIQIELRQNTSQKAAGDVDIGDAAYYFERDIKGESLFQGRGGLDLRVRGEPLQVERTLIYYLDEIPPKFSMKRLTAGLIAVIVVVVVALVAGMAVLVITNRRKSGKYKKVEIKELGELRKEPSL
Put plainly: cell-based or functional assay.

Test [2] addresses T2, Human TROP2 Protein, His Tag (Acro Biosystems) (human, UniProt P09758 27-274).
T2 construct: not shown: His tag
T2 sequence (looked up): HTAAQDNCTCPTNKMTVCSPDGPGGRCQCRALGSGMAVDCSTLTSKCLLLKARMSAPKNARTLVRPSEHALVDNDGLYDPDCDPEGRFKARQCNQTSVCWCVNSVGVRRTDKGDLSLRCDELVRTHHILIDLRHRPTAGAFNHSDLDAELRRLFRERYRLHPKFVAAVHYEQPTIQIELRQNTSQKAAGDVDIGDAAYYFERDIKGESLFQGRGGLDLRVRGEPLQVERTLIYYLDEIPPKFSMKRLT
Put plainly: BLI (Octet) [2/2].

In test [3] the target is T3, Human TROP2 Protein, His Tag (human, UniProt P09758 27-274).
T3 construct: Bought protein; also called TACSTD2; not shown: His tag
T3 sequence (looked up): T2 sequence (looked up)
Put plainly: BLI (Octet). Background: BLI is a label-free optical method that tracks binding on a fibre tip over time.

The target in test [4] is T4, Human TROP2 Protein, His Tag (Acro Biosystems) (human, UniProt P09758 27-274).
T4 construct: Bought protein; also called TACSTD2; not shown: His tag
T4 sequence: T2 sequence (looked up)
Put plainly: BLI (Octet).

Test [5] concerns the target T4, Human TROP2 Protein, His Tag (Acro …). Put plainly: BLI (Octet), antibody on anti-human Fc sensor, human TROP2-His in solution; legend: 3=No binding.

B1: MYT12375 (antibody, human IgG1, V domains shown)
VH: QVQLQQSGSELKKPGASVKVSCKASGYTFTNYGMNWVKQAPGQGLKWMGWINTYTGEPTYTDDFKGRFAFSLDTSVSTAYLQISSLKADDTAVYFCARGGFGSSYWYFDVWGQGSLVTVSS
VL: DIQLTQSPSSLSASVGDRVSITCKASQDVSIAVAWYQQKPGKAPKLLIYSHSHRYTGVPDRFSGSGSGTDFTLTISSLQPEDFAVYYCQQHYHTPLTFGAGTKVEIK
With B1, in test [1], the “cytotoxicity on TROP2-positive NCI-H1975 cells (antibody complexed to secondary antibody-MMAF, cell titer glow assay)” value is ~27 % greater cytotoxicity compared to WT datopotamab.

B2: MYT12351 (antibody, V domains shown)
VH: B1 VH
VL: B1 VL with H53Y, Y92H, H93I
notes: sacituzumab VL 51, 92 -> H
As to B2, the binding result in test [2] is “binds”.

B3: MYT11665 (antibody, V domains shown)
VH: QVQLVQSGAEVKKPGASVKVSCKASGYTFTTAGMQWVRQAPGQGLEWMGWINTHSGVPKYAEDFKGRVTISADTSTSTAYLQLSSLKSEDTAVYYCARHGFGSSYWYFDVWGQGTLVTVSS
VL: B1 VL with L4M, S20T, I31T, H51A, H53Y, D60S, H93I, A100Q, V104L
notes: IgG from supernatant; His at HCV position 99; also called datopotamab variant H3 03
In the case of B3, the binding result in test [3] is “no binding (tested: 50 nM)”.

B4: MYT12376 (antibody, V domains shown)
VH: B1 VH
VL: B1 VL with H53Y, Q89H
notes: sacituzumab VL 51, 89, 93 -> H
As to B4, the binding result in test [2] is listed as “binds”.

B5: MYT11672 (antibody, V domains shown)
VH: B3 VH with H99S, W106H
VL: B1 VL with L4M, S20T, I31T, H51A, H53Y, D60S, H93I, A100Q, V104L
notes: IgG from supernatant; also called datopotamab variant H3 10
Consider B5, for which, in test [3], the binding result was “no binding (tested: 50 nM)”.

B6: MYT12357 (antibody, V domains shown)
VH: B1 VH
VL: B1 VL with H51A, S52H, H53Y
notes: sacituzumab VL 52, 93 -> H
B6: the binding result in test [2] is recorded as “binds”.

B7: MYT12353 (antibody, V domains shown)
VH: B1 VH
VL: B1 VL with H51A, S52H, H93I
notes: sacituzumab VL 52, 53 -> H
In the case of B7, the binding result in test [2] is given as “binds”.

B8: MYT12364 (antibody, V domains shown)
VH: B1 VH
VL: B1 VL with H51A, H53Y, Q89H
notes: sacituzumab VL 89, 93 -> H
Turning to B8, the binding result in test [2] was “binds”.

B9: MYT11663 (antibody, V domains shown)
VH: B3 VH with A97H, H99S
VL: B1 VL with L4M, S20T, I31T, H51A, H53Y, D60S, H93I, A100Q, V104L
notes: IgG from supernatant; His at HCV position 97; also called datopotamab variant H3 01
Turning to B9, the binding result in test [3] is “no binding (tested: 50 nM)”.

B10: MYT11668 (antibody, V domains shown)
VH: B3 VH with H99S, G102H
VL: B1 VL with L4M, S20T, I31T, H51A, H53Y, D60S, H93I, A100Q, V104L
notes: IgG from supernatant; also called datopotamab variant H3 06
As for B10, the binding result in test [3] was “no binding (tested: 50 nM)”.

B11: MYT12352 (antibody, V domains shown)
VH: B1 VH
VL: B1 VL with H53Y
notes: sacituzumab VL 51, 93 -> H
Take B11: the binding result in test [2] is on record as “binds”.

B12: MYT11666 (antibody, V domains shown)
VH: B3 VH with H99S, G100H
VL: B1 VL with L4M, S20T, I31T, H51A, H53Y, D60S, H93I, A100Q, V104L
notes: IgG from supernatant; His at HCV position 100; also called datopotamab variant H3 04
Consider B12, for which the binding result in test [3] is “no binding (tested: 50 nM)”.

B13: MYT12377 (antibody, V domains shown)
VH: B1 VH
VL: B1 VL with H51A, Q89H
notes: sacituzumab VL 53, 89, 93 -> H
As to B13, the binding result in test [2] is reported as “binds”.

B14: MYT12374 (antibody, V domains shown)
VH: B1 VH
VL: B1 VL with Q89H, H93I
notes: sacituzumab VL 51, 53, 89 -> H
As to B14, the binding result in test [2] is “binds”.

B15: MYT11669 (antibody, V domains shown)
VH: B3 VH with H99S, S103H
VL: B1 VL with L4M, S20T, I31T, H51A, H53Y, D60S, H93I, A100Q, V104L
notes: IgG from supernatant; also called datopotamab variant H3 07
As to B15, the binding result in test [3] is reported as “no binding (tested: 50 nM)”.

B16: MYT11643 (antibody, V domains shown)
VH: B3 VH with G33H, H99S
VL: B1 VL with L4M, S20T, I31T, H51A, H53Y, D60S, H93I, A100Q, V104L
notes: IgG from supernatant; His at HCV position 33; also called datopotamab variant H1 08
Take B16: the binding result in test [3] is given as “no binding (tested: 50 nM)”.

B17: MYT12412 (hu7E6SVG variant, HCV substitutions at 33, 103) (antibody, V domains shown)
VH: QVQLQESGPGLVKPSETLSLTCTVSGGSISSYHVHWIRQPPGKGLEWIGVIWTSGVTDYNSALMGRVTISVDTSKNQFSLKLSSVTAADTAVYYCARDGDYDHYTMDYWGQGTLVTVSS
VL: DIVMTQSPDSLAVSLGERATINCRASKSVSTSGYSYMHWYQQKPGQPPKLLIYLASNLESGVPDRFSGSGSGTDFTLTISSLQAEDVAVYYCQHSRELPYTFGQGTKLEIK
On to B17, for which the binding result in test [4] is given as “binds”.

B18: MYT12421 (hu7E6SVG variant, HCV substitutions at 51, 103) (antibody, V domains shown)
VH: B17 VH with H33G, I51H
VL: B17 VL
As for B18, the binding result in test [4] is “binds”.

B19: MYT12413 (hu7E6SVG variant, HCV substitutions at 33, 106) (antibody, V domains shown)
VH: B17 VH with H103R, M106H
VL: B17 VL
In the case of B19, the binding result in test [5] is reported as “no binding (tested: 50 nM)”.

B20: MYT12456 (hu7E6SVG variant, LCV substitutions at 59, 60, 97) (antibody, V domains shown)
VH: B17 VH with H33G, H103R
VL: B17 VL with E59H, S60H, E97H
notes: Full IgG in Expi293 supernatant
Take B20: in test [5], the binding result was “no binding (tested: 50 nM)”.

B21: MYT12460 (hu7E6SVG variant, LCV substitutions at 59, 93, 101) (antibody, V domains shown)
VH: B17 VH with H33G, H103R
VL: B17 VL with E59H, Q93H, T101H
notes: as for B20
With B21, the binding result in test [5] is “no binding (tested: 50 nM)”.

B22: MYT12465 (hu7E6SVG variant, LCV substitutions at 60, 93, 97) (antibody, V domains shown)
VH: B17 VH with H33G, H103R
VL: B17 VL with S60H, Q93H, E97H
notes: as for B20
With B22, in test [5], the binding result is “no binding (tested: 50 nM)”.

B23: MYT12457 (hu7E6SVG variant, LCV substitutions at 59, 60, 101) (antibody, V domains shown)
VH: B17 VH with H33G, H103R
VL: B17 VL with E59H, S60H, T101H
notes: as for B20
Turning to B23, the binding result in test [5] is recorded as “no binding (tested: 50 nM)”.

B24: MYT12417 (hu7E6SVG variant, HCV substitutions at 34, 103) (antibody, V domains shown)
VH: B17 VH with H33G, V34H
VL: B17 VL
As for B24, the binding result in test [4] is listed as “binds”.

B25: MYT12425 (hu7E6SVG variant, HCV substitutions at 56, 106) (antibody, V domains shown)
VH: B17 VH with H33G, V56H, H103R, M106H
VL: B17 VL
As for B25, the binding result in test [4] is reported as “binds”.

B26: MYT12464 (hu7E6SVG variant, LCV substitutions at 60, 93, 94 (Ala at 94)) (antibody, V domains shown)
VH: B17 VH with H33G, H103R
VL: B17 VL with S60H, Q93H, H94A
notes: as for B20
Consider B26, for which the binding result in test [5] is listed as “no binding (tested: 50 nM)”.

B27: MYT12458 (hu7E6SVG variant, LCV substitutions at 59, 93, 94 (Ala at 94)) (antibody, V domains shown)
VH: B17 VH with H33G, H103R
VL: B17 VL with E59H, Q93H, H94A
notes: as for B20
Turning to B27, in test [5], the binding result is given as “no binding (tested: 50 nM)”.

B28: MYT12461 (hu7E6SVG variant, LCV substitutions at 59, 94, 97 (Ala at 94)) (antibody, V domains shown)
VH: B17 VH with H33G, H103R
VL: B17 VL with E59H, H94A, E97H
notes: as for B20
Turning to B28, the binding result in test [5] was “no binding (tested: 50 nM)”.

B29: MYT12416 (hu7E6SVG variant, HCV substitutions at 34, 102) (antibody, V domains shown)
VH: B17 VH with H33G, V34H, D102H, H103R
VL: B17 VL
For the molecule B29, the binding result in test [4] is recorded as “binds”.

B30: MYT12424 (hu7E6SVG variant, HCV substitutions at 56, 103) (antibody, V domains shown)
VH: B17 VH with H33G, V56H
VL: B17 VL
Turning to B30, the binding result in test [4] is given as “binds”.

B31: MYT12462 (hu7E6SVG variant, LCV substitutions at 59, 94, 101 (Ala at 94)) (antibody, V domains shown)
VH: B17 VH with H33G, H103R
VL: B17 VL with E59H, H94A, T101H
notes: as for B20
As for B31, the binding result in test [5] is recorded as “no binding (tested: 50 nM)”.

B32: MYT12420 (hu7E6SVG variant, HCV substitutions at 51, 102) (antibody, V domains shown)
VH: B17 VH with H33G, I51H, D102H, H103R
VL: B17 VL
On to B32, for which the binding result in test [4] is reported as “binds”.
